Laboratory results as given in PMC2115640.

Biological target: TX-100 cytoskeleton
Experiment: detergent extraction

gp135 remaining (%) with the TX-100 cytoskeleton, 48-h cultures: 66.2%
gp135 remaining (%) with the TX-100 cytoskeleton, 72-h cultures: 53.4%
B1: 135-kD glycoprotein (gp135) (natural protein)
chain: HDGTIIAATSPTSGQPSTELPGGKGLITTAKTIQNTDLAITGEKVMSATVSKGPLPGSSNSVSMTLAPTQKNTVIAPDQDEKVSTNPTIATSDSKGIPDLNKSILPSATNSMKPDTPVTQTAGPGAQGNPGTTVSHMTSENTEQTTSQPPPQVKPSSITPALTSIITPTSPRQPSANSTTLKPPESSSESPDKSHTASSSLGTKVVPSSSLYGTSPTRTSSVTFWGGPQSSSGTPPVPAPTPRPAATSSSTPGISSVPGTTSLPSETESLESPSSESPSQPPKLRPTGPPSSGSSGPAASLPDEGPRSSSTQRAATAPRAPSVPSPTSAQGDDRIKCESPGRLTDKMLLLNLTRSGLCAGNNSDDKLITLLCRAAKATFNPAQDQCHIRLVPIQDTQAVAIKEITVQTNLLPRDVYELLKDKWDELKEVGVSNMKLGDQGPPEETEDRFSMPLIITIVCMASFLLLVAALYGCCHQRLSQRKDQQRLTEELQTVENGYHDNPTLEVMETSSEMQEKKVVNLNGELGDSWIVPLDNLAKDDLDEEEDTHL
